# B1: HDV Ribozyme (parent)
# chain: GGCCGGCAUGGUCCCAGCCUCCUCGCUGGCGCCGGCUGGGCAACAUUCCGAGGGGACCGUCCCCUCGGUAAUGGCGAAUGGGACCCA
# Variants of: B1
# Test: self-cleavage, relative activity (ratio to wild type); higher = more cleavage; co-transcriptional
row,Variant,self-cleavage
1,GGCCGGCAUGGUCCCAGCCUCCUGGCUGGCGCCGGCUGGCCAACAUUCCGAGGGGACCGUCCCCUCGGUAAUGGCGAAUGGGACCCA,0.0222
2,GGCCGGCAUGGUCCCAGCCUCCUCGCUGGCGCCGGCUGGGCAACACUCCGAGGGGACCGUCCCGUCGGUAAUGGCGAAUGGGACCCA,0.875
3,GGCCGGCAUGGUCCCAGCCUCAUCGCUGGCGCCGGCUGGGCAACAUUCCGAGGGGACCGUCCCGUCGGUAAUGGCGAAUGGGACCCA,0.302
4,GGCCGGCAUGGUCCCUGCCUCCUCGCUGGCGCCGGCUGGGCAACAUUCCGAGGGGACCGUCCCCUCGAUAAUGGCGAAUGGGACCCA,1.09
5,GGCCGGCAUGCUCCCAGCCUCCUCGCUGGCGACGGCUGGGCAACAUUCCGAGGGGACCGUCCCCUCGGUAAUGGCGAAUGGGACCCA,0.0437
6,GGCCGGCAUGGUCCCAGCCUCCUCGCUGGCGCCGGCUGGGCAACAUUCCGAAGGGACCGUCCCCUCGGUAAUGGCGAAUGGGACCCC,1.13
7,GGCCGGCAUGGUCCCAGCCUCCUCGCUGGCUCCGGCUGGGCAACACUCCGAGGGGACCGUCCCCUCGGUAAUGGCGAAUGGGACCCA,0.306
8,GGCCGGCAUGGUCCCAGCCUCCUCGCUGGCGCCGGCUGGGCAACAUUCCGAGUCGACCGUCCCCUCGGUAAUGGCGAAUGGGACCCA,0.845
9,GGCCGGCAUGGUCCCAGCCUCCUCGCUGGCGCCGCAUGGGCAACAUUCCGAGGGGACCGUCCCCUCGGUAAUGGCGAAUGGGACCCA,0.119
10,GACCGGCAUGGUCCCAGCCUCCUCGCUGGCGCCGGCUGGGCAACAUUCCGAGGGGACCGUCCCCUCGGUAAUGGCGAAUGGGACCCG,0.145
11,GGCCGGCAUGGUCCCAGCCUCCUGGCUGGCGCCGGCGGGGCAACAUUCCGAGGGGACCGUCCCCUCGGUAAUGGCGAAUGGGACCCA,0
12,GGCCGGCAUGGUCCCAGCCUCCUCGCUCGCGCCGGCUGGGCAACAUUCCGAGGGGACCGUCCCCUCGCUAAUGGCGAAUGGGACCCA,0.138
13,GGCCGGCAUGGUCCCAGCCUCCUCGCUGGCGCCGGCUGGGCAACAUUCCGAGGGGACCGUCCCCUCGGUAAUGGUGAAUGGUACCCA,0.296
14,GGCCGGCAUGGUGCCAGCCUCCUCGCGGGCGCCGGCUGGGCAACAUUCCGAGGGGACCGUCCCCUCGGUAAUGGCGAAUGGGACCCA,0.396
15,GGCCGGCAUGGUCCCAGCCUCCUCGCUGGCGCCGGCUGGGCAACAUGCCGAGGGGACCGUCCCCUCGGUAAUGGCGAAUGGGACCCC,1.05
16,GGCCCGCAUGGUCCCAGCCUCCUCGCUGGCGCCGGCUGGGCAACGUUCCGAGGGGACCGUCCCCUCGGUAAUGGCGAAUGGGACCCA,0.0875
17,GGCCGGCAUGCUCCCAGCCUCCUCGCUGGCGCCGGCUGGGCAACAUUCCGAGGGGACCGUCCCCUCGGUAAUGGCAAAUGGGACCCA,0.312
18,GUCCGGCAUGGUCCCAGCCUGCUCGCUGGCGCCGGCUGGGCAACAUUCCGAGGGGACCGUCCCCUCGGUAAUGGCGAAUGGGACCCA,0.0594
19,GGCCGGCAAGGUCCCAGCCUCCUCGCUGGCGCCGGCUGGGCAACAUUCCGAGGGGACCGUCCCCUCGGUAAUGCCGAAUGGGACCCA,0.0573
20,GGCCGGCAUGGUCCCAGCCUCCUCGCUGGCGCCGGCUGGGCAACAUUCCGGGGGGACCGUCCCCUGGGUAAUGGCGAAUGGGACCCA,0.989
21,GGCCGGCAUGGUCCCAGCCUCCUCGCUGGCCCCGGCUGGGCAACAUUCCGAGGGGACCGUACCCUCGGUAAUGGCGAAUGGGACCCA,0.332
22,GGCCGGCAUGGUCCCAGCCUCCUCGCUGGCGCCGGCUGGGCAACAUUCCGAGUGGACCGUCCCCUCGGUAAUGGCGAAUGGGACCCG,1.03

row,Variant,self-cleavage
1,GGCCGGCAUGGUCCCAGCCUCCUCGCUGGCGCCGGCUGGGCAACAUUCCAAGGGGACCGUCCCCUCGGUAAUGGAGAAUGGGACCCA,0.178
2,GGCCGGCAUGGUCCCAGCCUCCUCGCUGGCGCCGGCGGGGCAACAUUCCGAGGGGACCGUCCCCUCGGUAUUGGCGAAUGGGACCCA,0.0594
3,GGCCGGCAUGGUCCCAGCCUCCUCGCUGGCGCCGGCUGUGCAACAUUCCGAGGUGACCGUCCCCUCGGUAAUGGCGAAUGGGACCCA,0.722
4,GGGCGGCAUGGUCCCAGCCUCCUCGCUGGCGCCGGAUGGGCAACAUUCCGAGGGGACCGUCCCCUCGGUAAUGGCGAAUGGGACCCA,0.0288
5,GGCCGGCAUGGGCCCAGCCUGCUCGCUGGCGCCGGCUGGGCAACAUUCCGAGGGGACCGUCCCCUCGGUAAUGGCGAAUGGGACCCA,0.0665
6,GGCCGGCAUGGUCCCAGCCUCCUCGCUAGCGCCGGCUGGGCAACAUUCCGAGGGGACCGUCCCCUCGGUAUUGGCGAAUGGGACCCA,0.0292
7,GGCCGGCAUGGUCCCAGCCUCCUCGCUGGAGCCGGCUGGGCAACAUUCCGAGGGGACGGUCCCCUCGGUAAUGGCGAAUGGGACCCA,0.596
8,GGCCGGCAUGGUCCCAGCCUCCUCGCUGGCGCCGGCUGGGCAACAUUCCGAGGGGACCGUCCCCUCGGUAAUGACGAAUGGGCCCCA,0.232
9,GGCCGUCAUGGUCCCAGCCUCCUCGCUGGCGCCGGCUGGGCAACAUUCCGAGGGGACCGUCCCCUCGGUCAUGGCGAAUGGGACCCA,0.135
10,GGCCGGCAUGGUCCCAGCCUCCUCGCUGGCGCCGGCAGGGCAACAUUCCGCGGGGACCGUCCCCUCGGUAAUGGCGAAUGGGACCCA,0.217
11,GGCCGGCAUGAUCCCAGCCUCCUCGCUGGAGCCGGCUGGGCAACAUUCCGAGGGGACCGUCCCCUCGGUAAUGGCGAAUGGGACCCA,0.106
12,GGCCGGCAUGGUCCCAGCCUCCUCGCUGGCGCCGGCUGGGCAACAUUCCGAGGGGACCGUCCCCUCGGUAAUGGCGAAUUGGACCCA,0.223
13,GACCGGCAUGGUCCCCGCCUCCUCGCUGGCGCCGGCUGGGCAACAUUCCGAGGGGACCGUCCCCUCGGUAAUGGCGAAUGGGACCCA,0.0733
14,GGCCGGCAUGGUCCCAUCCUCCUCGCUGGCGCCGGCUGGGCAACAUUCCGAGGGGACCGUCCCCUCGGAAAUGGCGAAUGGGACCCA,0.306
15,GGCCGGCAUGGUCACAGCCUCCUCGCUGGCGCCGACUGGGCAACAUUCCGAGGGGACCGUCCCCUCGGUAAUGGCGAAUGGGACCCA,0.0426
16,GGCCGGCAUGGUCCCAGCCUCCUCGCUGGCGCCGGCUGGGCAACAUUCCGAGGGGACCGUCCCCUCGGUAAUGGCGAACGGGAGCCA,0.214
17,GGCCGGCAUGGUCCCAGCCUCCUCGCUGCCGCCGGCUGGGCAACAUUCCGAGGGGACCCUCCCCUCGGUAAUGGCGAAUGGGACCCA,0.123
18,GGCCGGCAUGGUUCCAGCCUCCUCGCUGGCGCCGGCUGGGCAACAUUCCGAGGGGACCGUCCCCUCGGUAAUGGCGAAUGGGACUCA,0.332
19,GGCCGGCAUGGUCCCACCCUCCUCGCUGGCGCCGGCUGGGCAACAUUCCGAGGGGAACGUCCCCUCGGUAAUGGCGAAUGGGACCCA,0.437
20,GGCCGGCAUCGUACCAGCCUCCUCGCUGGCGCCGGCUGGGCAACAUUCCGAGGGGACCGUCCCCUCGGUAAUGGCGAAUGGGACCCA,0
21,GGCCGGCGUGGUCCCAGCCUCCUCGCUGGCGCCGGCUGGGCAACAUUCCGAGGGCACCGUCCCCUCGGUAAUGGCGAAUGGGACCCA,0.982
22,GGCCGGCAUGGUCCCAGCCUCCUCGCUGGCGCCGGCUGGGCAACAUUCCGAGGGGACCGUCCCCUCGGUGAUGGCGACUGGGACCCA,0.151

row,Variant,self-cleavage
1,GGCCGGCAUGGUCCCAGCCUCCUCGCUGGCGCCGGCUGGGCAACAUUCCGAGGGGACCGUCCCCCCGGUAAUGGCGAAUGGGACCCU,1.08
2,GGCCGGCGUGGUCUCAGCCUCCUCGCUGGCGCCGGCUGGGCAACAUUCCGAGGGGACCGUCCCCUCGGUAAUGGCGAAUGGGACCCA,0.997
3,GGCCGGCAUCGUCCCAGCCUCCUCGCUGGCGCCGGCUGGGCAACAUUCCGAGGGGACCGUCCCCUCGGCAAUGGCGAAUGGGACCCA,1.21
4,GGCCGGCAUGGUCCCAGCCUCCUCGCUGGCGCCGGCUGGGCAAGAUUCCGAGGGGACCGUCCCCUCGGUAAAGGCGAAUGGGACCCA,0.229
5,GGCCGGCAUGGUCCCAGGCUCCUCGCUGGCGCCGGCUGGGCAACAUUCCGUGGGGACCGUCCCCUCGGUAAUGGCGAAUGGGACCCA,0.0489
6,GGCUGGCAUGGUCCUAGCCUCCUCGCUGGCGCCGGCUGGGCAACAUUCCGAGGGGACCGUCCCCUCGGUAAUGGCGAAUGGGACCCA,0.731
7,GGCCGGCAUGGUCCCAGCCUCCUCGCUGGCGCCGGCUGGGCAACAUUCCGAGGGGUCCGUCCCAUCGGUAAUGGCGAAUGGGACCCA,0.899
8,GGCCGGCAUGGUCCUAGCCUCCUCGCUGGCGCCGGCUGGGCAACAUUCCGAGGGGACCGUCCCCUCGGUAAUGGCGAAUAGGACCCA,0.992
9,GGCCGGCAUGGUCCCAGCCUCCUCGCUGGCGCCGGCUGGCCAACAUUCCGAGGGGACCGUCCCCUCGGUAAUGGCGAAUGGGACCCU,0.325
10,GGCCGGCAUGUUCCCAGCCUCCUCGCUGGCGCCGGCUGGGGAACAUUCCGAGGGGACCGUCCCCUCGGUAAUGGCGAAUGGGACCCA,0.204
11,GGCUGGCAUGGUCCCAGCCUCCUCGCUGGCGCCGGCUGGGCAACAUGCCGAGGGGACCGUCCCCUCGGUAAUGGCGAAUGGGACCCA,0.88
12,GGCCGGCAUGGUCCCAGCCUCCACGCUGACGCCGGCUGGGCAACAUUCCGAGGGGACCGUCCCCUCGGUAAUGGCGAAUGGGACCCA,0.0804
13,GGCCGGCAUGGUCCCAGCCUCCUCGCUGGCGCCGGCUGGGCAACAUUCCGUGGCGACCGUCCCCUCGGUAAUGGCGAAUGGGACCCA,0.982
14,GGCCGGCAUGGUCCCAGCCUCCUCGCUGGCGCGGGCUGGGCAACAUUCCUAGGGGACCGUCCCCUCGGUAAUGGCGAAUGGGACCCA,0.131
15,GGCCGGCAUGGUCCCAGCCUCCUCGCUGGCGCCGGCGGGCCAACAUUCCGAGGGGACCGUCCCCUCGGUAAUGGCGAAUGGGACCCA,0.0519
16,GGCCGGCAUGGUACCAGCCUCCUCGCUGGCGCCGGCUGGGCAACAUUCCGAGGGGACCGUCCCCUCGGUAAUGGCGAAUGGGACCGA,0.178
17,GGCCGGCAUGGUCCCAGCCUCCUCGCUGGAGCCGGCUGGGCAACAUUCCGACGGGACCGUCCCCUCGGUAAUGGCGAAUGGGACCCA,0.58
18,GGCCGGCAUGGUCCCAGCCUCCUCGCUGACGCCGGCUGGGCAACAUUCCGAGGGGACCGUACCCUCGGUAAUGGCGAAUGGGACCCA,0.177
19,GGCCGGCAUGUUCCCAGCCUCCUCCCUGGCGCCGGCUGGGCAACAUUCCGAGGGGACCGUCCCCUCGGUAAUGGCGAAUGGGACCCA,0.104
20,GGCCGGCAUGGUCCCAGCCUCCUCGCUGGCGCCGGCUGGGCAACAUUCCGAGGGGACCGUCCCCGCGGUAAUCGCGAAUGGGACCCA,0.289

# From the RNAGym collection of RNA variant scans (doi:10.7554/elife.80360)
